Measured values: publication PMC12102758

Target: SkSGL from Sanguibacter keddieii fused with a His6-tag at the C-terminus (Group 2 / GH193 β-1,2-glucanase) (Sanguibacter keddieii)
Assay: SEC; Superdex 200 (HiLoad 16/60), 20 mM Tris-HCl (pH 7.5) in place of 50 mM Tris-HCl (pH 8.0); size by protein markers

stoichiometry N: 2
Substance: SkSGL from Sanguibacter keddieii fused with a His6-tag at the C-terminus (Group 2 / GH193 β-1,2-glucanase) (enzyme)
